B1: LINE1-mini (parent)
chain: GGCAGAGCUCAACACAGCGUGGCAAAGUGGCUGUGGCUAGACUGCC

Variants of: B1
Assay: self-cleavage, relative activity (ratio to wild type); higher = more cleavage; in vitro, sequencing; the parent is a self-cleaving ribozyme

Variant | self-cleavage
GGCAGAGCUCAACACAGCGCGGCAAAGUGGCUGUGGCUAGACUGCA | 0.7
GGGAGAGCUCAACACAGCGUGGCAAAGUGGCUGUGGCUAGACAGCC | 0.41
GGCAGAGCUCCACACAGCGUGGCAGAGUGGCUGUGGCUAGACUGCC | 0.08
GGCAGAGCGCAACACAGCGUGACAAAGUGGCUGUGGCUAGACUGCC | 0.21
GGCAGAGCUCAACACAGCGUGGCAAAGUGGCACUGGCUAGACUGCC | 0.08
GGUAGAGCUCAACACAGCGUGGCACAGUGGCUGUGGCUAGACUGCC | 0.52
GGCACAGCUCAACACAGCGUGGCAAAGUGGCUGUGGCUAGAGUGCC | 0.46
GGCAGAGCUCAACACAGCGUGGCAAAGUGACUGUGGCUAGCCUGCC | 0.07
GGCAGAGCUCAACACAGAGUGGCAAAGUGGCUGUGGCUAUACUGCC | 0.06
GGCAGAGCUCUAGACAGCGUGGCAAAGUGGCUGUGGCUAGACUGCC | 0.03
GGCAGCGCUUAACACAGCGUGGCAAAGUGGCUGUGGCUAGACUGCC | 0.15
GGCAGAGCUCAACACAGCAUGGCAAAGUGGCUAUGGCUAGACUGCC | 0.11
GGCAGAGGUCAACACAGCGUGGCAAAGUGGCUGUAGCUAGACUGCC | 0.13
GAGAGAGCUCAACACAGCGUGGCAAAGUGGCUGUGGCUAGACUGCC | 0.76
GGGAGAACUCAACACAGCGUGGCAAAGUGGCUGUGGCUAGACUGCC | 0.49
GGCAGAGCUGAACACAGCGUGGCAAACUGGCUGUGGCUAGACUGCC | 0.09
GGCAGAGCUAAACACAGCGUGGCAAAGUGGUUGUGGCUAGACUGCC | 0.04
GGCAGAGCUCAUCACUGCGUGGCAAAGUGGCUGUGGCUAGACUGCC | 0.07
GGAAGAGCUCAACACAGCGUGGCAAAUUGGCUGUGGCUAGACUGCC | 0.62
GGCAGAGCUCAACACAGCGUGGCAAAGUGCCUGUGGCUAGACUGCU | 1.09
GGCAGAGCUCAACACAGCGUGGCAAAUUGGCUGGGGCUAGACUGCC | 0.26
GGCAGAGCUCAACACCGCGUGGCAAAGUGGCUGUGGCUAAACUGCC | 0.05
GGCAGAGCUCAACACAGCGGGGCAAAGUGGCUGUGGCUACACUGCC | 0.04

Variant | self-cleavage
GGCAGAACUCAACACAGCGUGGCAAUGUGGCUGUGGCUAGACUGCC | 0.21
AGCAGAGCUCAACACAGCGUGGCAAAGUGGCUGUUGCUAGACUGCC | 0.17
GGCAGAGCUUAACACAGCGUGACAAAGUGGCUGUGGCUAGACUGCC | 0.25
GGCCCAGCUCAACACAGCGUGGCAAAGUGGCUGUGGCUAGACUGCC | 0.08
GACAGAGCUCAACACAGCGUGGCAACGUGGCUGUGGCUAGACUGCC | 0.9
GGCAGAGCUCAACACAGGGAGGCAAAGUGGCUGUGGCUAGACUGCC | 0.41
GGCAGAGCUCAACACCGCGUGGCAAAGUGGCUGUUGCUAGACUGCC | 0.03
GGCAGAUCUCAACACAGCGUGGCAAAGUUGCUGUGGCUAGACUGCC | 0.15
GGCAGAGCUCAACACAGUGUGGCAAAGUGGCUGUUGCUAGACUGCC | 0.08
GGCAGAGCUCAACCCAGCGUGGCAAAGUGGCUGUGGAUAGACUGCC | 0.08
GGCAGACCUCAACACAGUGUGGCAAAGUGGCUGUGGCUAGACUGCC | 0.19
GGCAGAGCUCAACACAGCGUGGCAAAGUGGCUGGGGCUAGACUGCU | 0.19
GGCAGAGCUCAACACAGCGUAGCACAGUGGCUGUGGCUAGACUGCC | 2.37
GGCAGAGCUCAACAUAGCGUGGCAAAGUGACUGUGGCUAGACUGCC | 0.35
GGCAGAGCUCAACACAGCCUGGCAUAGUGGCUGUGGCUAGACUGCC | 0.26
GGCAGAGCUCAACACAGCGCGGCAAAGUGGCUGUGUCUAGACUGCC | 0.15
GGCAGAGCUCAACACAGCGUGGCAAAGUGGCUGAGGCUAGACUGUC | 0.11
GGCAGAGCUCAACACAGCGUGGCAAAGUAGCAGUGGCUAGACUGCC | 0.4
GGCAGACCUCAACACAGCGUGGCACAGUGGCUGUGGCUAGACUGCC | 0.14
GGCAUAGCUCAACACAGCGUGGCAACGUGGCUGUGGCUAGACUGCC | 0.11
GGCAGAGCUGAACACAGCGUAGCAAAGUGGCUGUGGCUAGACUGCC | 0.18
GGCAGAGCUCGACACAGCGUGGCAAAGUGGCUGUGGCUAAACUGCC | 0.03
GGCAGAGCACAACACAGCAUGGCAAAGUGGCUGUGGCUAGACUGCC | 0.15

Variant | self-cleavage
GGCAGAGCUCAACACAGCGUGGCCAAGUGGCUGUGGCUAGAAUGCC | 0.15
GGCAGAGCUCAACACAGUGUGUCAAAGUGGCUGUGGCUAGACUGCC | 1.21
GGCAGAGCUCAAUACACCGUGGCAAAGUGGCUGUGGCUAGACUGCC | 0.11
GGCAGAGCUCAACACAGCGUGGCGAAGUGGCUGUGGCUAGUCUGCC | 0.67
GGCAGAGCUCAAUACAGCGUGGCAAAGUGGCUGCGGCUAGACUGCC | 0.14
GGCAGAGCUCAAUACAGCGUGGCAAAGUGGCUGGGGCUAGACUGCC | 0.05
GGCCGAGCUCAACACAGCGUGGGAAAGUGGCUGUGGCUAGACUGCC | 0.23
GGCAGAGCCCAACACAGCGUGGCAAAGUGGCUGUGGCUAGACAGCC | 0.03
GGCGGAGCUCAACACAGCGUGGCAAAGUGGCUGUGGCUAGACUGAC | 0.45
GGCAGAGCUCAACACACCGUGGCAAAGUGGCUGUGGGUAGACUGCC | 0.04
GGCAGAGCUCAACACAGCGUGGCAAAGUUGCUGUGGCCAGACUGCC | 0.47
GGCCGAGCUCAACACAGCGUGGCAAACUGGCUGUGGCUAGACUGCC | 0.07
GGCAGAGCUCAACACAGCGUGGCAAACUGGCUGUGGCUUGACUGCC | 0.76
GGCAGAGCACAACACAGCGUGGCAAAGUGUCUGUGGCUAGACUGCC | 0.08
GGCAGAGCUCAACACAACGUGGCAAAGUGGUUGUGGCUAGACUGCC | 0.35
AGCAGAGCUCAACACAGCGUGGCAAAGUGGCCGUGGCUAGACUGCC | 0.11
GGCAGAGCUCAACACAGCGUGGCAACGUGGCUGUGGCUAGAGUGCC | 0.04
GGCGGAGCUCAACACAGCGUGGCAAAGUGGCUGUGGCUAGGCUGCC | 0.11
GGCAGAGCUCAACACAGCGUGGCAAAGUGGCUGUGGCUGGACAGCC | 0.04
GGCAGAGCUCAACACAGCGUGGCAAUGUGGCUGUGGGUAGACUGCC | 0.05
GGAAGAGCUCAACACAGCGUGGCAAAGUGGCUGUGGCUAGACUACC | 0.91
GGCAAAGCUCAACACAGCGUGGCAAAGAGGCUGUGGCUAGACUGCC | 0.12
GGCAGAGCUCAACACAGCGCGGCAAUGUGGCUGUGGCUAGACUGCC | 0.68

Variant | self-cleavage
GGCAUAGCUCAACACAGCGUGGCAAAGUGGCUGUGUCUAGACUGCC | 0.57
GGCAGAGCUCAACACACCGUGGCAAUGUGGCUGUGGCUAGACUGCC | 1.41
GGCAGAGCUCAACAGAGCGUGGUAAAGUGGCUGUGGCUAGACUGCC | 0.08
GGCAGAUCUCAACACAGCGAGGCAAAGUGGCUGUGGCUAGACUGCC | 0.06
GGCAGAGCUCAACACAGCGUGGCAAAUUGGCUGUUGCUAGACUGCC | 0.24
GGCAGAGCUCAACACAGCGUGGCAAUGUGGCUGUGGCUAGACUACC | 0.64
GGCAGAGCUCAACACAGCGUGGCAUAGUGGCUGUGGCAAGACUGCC | 0.6
GGCGGAGCUCAACACAGCGUGGCAAAGUGGCUGUGGCUAGAUUGCC | 0.22
GGCAGAGCUCAACAUAGCGUGGCAAAGUGGCUUUGGCUAGACUGCC | 0.37
GGCAGAGCUCAACACAGCGUAGCGAAGUGGCUGUGGCUAGACUGCC | 2.26
GGCAGAGCUCAACACAGCGUAGCCAAGUGGCUGUGGCUAGACUGCC | 1.61
GGCAGAGCUCAAGACAGCGUGGCAAAGUGGCUGUGCCUAGACUGCC | 0.08
GGCAGAGCUCAAGACAGCGUGGCAAAGUGGCUGUGACUAGACUGCC | 0.29
GGCAGAGCUCAACACAGCGCGACAAAGUGGCUGUGGCUAGACUGCC | 0.77
GGCAGAGCUCAACACAGCGUGGCAAAGUGCCUGUGGCUAGACUGUC | 0.88
GGCAGAGCUCAACACAGCGUGGCAAAGUGGCUGUGGGGAGACUGCC | 0.01
GGCAGCGCUCAACACAGCGUGGCAAAGUGGCUGUGGCUAGACUGGC | 0.09
AGCAGAGCUCAACACAGCGUGGCAAAGUGGCUGUGGCUAGACUGCG | 2.92
GGCAGAGCUCAGCACGGCGUGGCAAAGUGGCUGUGGCUAGACUGCC | 0.03
GGCAGAGCGCAACACAGCCUGGCAAAGUGGCUGUGGCUAGACUGCC | 0.06
GGCAGAGCUCAAUACAGCGUCGCAAAGUGGCUGUGGCUAGACUGCC | 0.25
GGCAGAGCUCAACACUGCGUGGCAAAGUGGCUGUGGCUCGACUGCC | 0.08
GGCAGAACUCAACACAGCGUGGCAUAGUGGCUGUGGCUAGACUGCC | 0.25

Variant | self-cleavage
GGCAGAGCUCAUCACACCGUGGCAAAGUGGCUGUGGCUAGACUGCC | 0.25
GGCAGAGCUCAACACAGCGUGGCAAAGUGGCUGUAGUUAGACUGCC | 0.06
CGCAGAGCUCAACACAGCGUGGCAAAGUGGCUGUGGCUCGACUGCC | 0.04
GCCAGAGCUCAACACAGCGUGGCAAAGUGGCUUUGGCUAGACUGCC | 0.05
GGCAGAACUCAACACAGCGUGCCAAAGUGGCUGUGGCUAGACUGCC | 0.13
GGCAAAGCUCAAAACAGCGUGGCAAAGUGGCUGUGGCUAGACUGCC | 0.15
GGCUGAGCUCAACACAGCGUGGCAAAGUGGCGGUGGCUAGACUGCC | 0.14
GGCAGAGCUCAACACAGCGUGGCAAUGUGGUUGUGGCUAGACUGCC | 0.18
GGCAGAGCUCAACACAGCGUGGCUAAGUGGCUGUGGCUAGAAUGCC | 0.18
GGCAGAGCUCAACACAGCGUGGAAAAGUGGCUGCGGCUAGACUGCC | 0.78
GGCAAAGCUCAACACAGCGUGGCCAAGUGGCUGUGGCUAGACUGCC | 0.08
GGCAGAGCUCAACACAGCGUGCCAAAGUGGCUGUGGUUAGACUGCC | 0.02
GGCAGAGCUCUACACAGCGUGACAAAGUGGCUGUGGCUAGACUGCC | 0.34
GCCAGAGCUCAACAAAGCGUGGCAAAGUGGCUGUGGCUAGACUGCC | 0.06
AGCAGAGUUCAACACAGCGUGGCAAAGUGGCUGUGGCUAGACUGCC | 0.78
GGCAGAGCUCAACACAGCGUGGCGAAGUGGCUGUGUCUAGACUGCC | 0.1
GGCAGAGCUCAACCCACCGUGGCAAAGUGGCUGUGGCUAGACUGCC | 0.04
GGCAGAGCUCAACACAGCGUGGCAAAGUGGCUGUGGCUAGUCGGCC | 0.17
GGUAGAGCUCAACACAGCGUGGCAAAGUGGCUGUGGCUAUACUGCC | 0.12
GGCAGAGCUCAACCCAGCGUGGCAAAGUGGCUGUGGCUAGACUACC | 0.07

From the RNAGym collection of RNA variant scans (doi:10.7554/elife.90254)
